From patent publication US20230242620A1 (published 2023)

Experiments:
Assay in all cases: SPR Biacore T100, 21-4-3 captured on anti-mouse IgG, 500 nM analyte
SEQ ID NO: 67 = target: T1, SEQ ID NO: 67
T1 construct: R83K
Experimental: (§1) Binding measurements were performed using a Biacore T100 using a CM5 T120416 sensor chip, with running buffer HBS-EP+, 25° C. […] The anti-mouse IgG used was a polyclonal rabbit anti-mouse IgG antibodies reacting with all IgG subclasses, IgA and IgM (GE Healthcare; Cat #BR-1008-38; Lot #10056316). Immobilisation of the anti-mouse IgG was performed using manual amine coupling using a 7 minute injection of EDC/NHS for activation and a 7 minute injection of 1M ethanolamine HCl pH 8.5 for deactivation (Biacore, amine coupling kit).

SEQ ID NO: 75 = target: T2, SEQ ID NO: 75
T2 construct: no mutations
Experimental: as §1

SEQ ID NO: 71 = target: T3, SEQ ID NO: 71
T3 construct: S113G
Experimental: as §1

SEQ ID NO: 52 = target: T4, SEQ ID NO: 52
T4 construct: S112G
Experimental: as §1

SEQ ID NO: 55 = target: T5, SEQ ID NO: 55
T5 construct: no mutations
Experimental: as §1

SEQ ID NO: 86 = target: T6, SEQ ID NO: 86
T6 construct: L11S, T110Q
Experimental: as §1

SEQ ID NO: 73 = target: T7, SEQ ID NO: 73
T7 construct: S112G, S113G
Experimental: as §1

SEQ ID NO: 66 = target: T8, SEQ ID NO: 66
T8 construct: L11S
Experimental: as §1

SEQ ID NO: 85 = target: T9, SEQ ID NO: 85
T9 construct: L11S, T110Q, S112G, S113G
Experimental: as §1

SEQ ID NO: 43 = target: T10, SEQ ID NO: 43
T10 construct: no mutations
Experimental: as §1

SEQ ID NO: 87 = target: T11, SEQ ID NO: 87
T11 construct: L11S, S112G, S113G
Experimental: as §1

SEQ ID NO: 74 = target: T12, SEQ ID NO: 74
T12 construct: no mutations
Experimental: as §1

SEQ ID NO: 83 = target: T13, SEQ ID NO: 83
T13 construct: T87A
Experimental: as §1

SEQ ID NO: 47 = target: T14, SEQ ID NO: 47
T14 construct: no mutations
Experimental: as §1

SEQ ID NO: 61 = target: T15, SEQ ID NO: 61
T15 construct: no mutations
Experimental: as §1

SEQ ID NO: 64 = target: T16, SEQ ID NO: 64
T16 construct: no mutations
Experimental: as §1

SEQ ID NO: 41 = target: T17, SEQ ID NO: 41
T17 construct: no mutations
Experimental: as §1

SEQ ID NO: 62 = target: T18, SEQ ID NO: 62
T18 construct: no mutations
Experimental: as §1

SEQ ID NO: 42 = target: T19, SEQ ID NO: 42
T19 construct: no mutations
Experimental: as §1

SEQ ID NO: 44 = target: T20, SEQ ID NO: 44
T20 construct: no mutations
Experimental: as §1

SEQ ID NO: 82 = target: T21, SEQ ID NO: 82
T21 construct: P84A
Experimental: as §1

SEQ ID NO: 58 = target: T22, SEQ ID NO: 58
T22 construct: no mutations
Experimental: as §1

SEQ ID NO: 40 = target: T23, SEQ ID NO: 40
T23 construct: no mutations
Experimental: as §1

SEQ ID NO: 78 = target: T24, SEQ ID NO: 78
T24 construct: Q13R
Experimental: as §1

SEQ ID NO: 84 = target: T25, SEQ ID NO: 84
T25 construct: S112G
Experimental: as §1

SEQ ID NO: 77 = target: T26, SEQ ID NO: 77
T26 construct: no mutations
Experimental: as §1

SEQ ID NO: 60 = target: T27, SEQ ID NO: 60
T27 construct: no mutations
Experimental: as §1

SEQ ID NO: 59 = target: T28, SEQ ID NO: 59
T28 construct: no mutations
Experimental: as §1

SEQ ID NO: 80 = target: T29, SEQ ID NO: 80
T29 construct: T110Q, S112G, S113G
Experimental: as §1

SEQ ID NO: 39 = target: T30, SEQ ID NO: 39
T30 construct: no mutations
Experimental: as §1

SEQ ID NO: 88 = target: T31, SEQ ID NO: 88
T31 construct: L11S, T110Q
Experimental: as §1

SEQ ID NO: 76 = target: T32, SEQ ID NO: 76
T32 construct: no mutations
Experimental: as §1

SEQ ID NO: 89 = target: T33, SEQ ID NO: 89
T33 construct: L11S, P14A, T110Q, S112G, S113G
Experimental: as §1

SEQ ID NO: 79 = target: T34, SEQ ID NO: 79
T34 construct: no mutations
Experimental: as §1

SEQ ID NO: 57 = target: T35, SEQ ID NO: 57
T35 construct: no mutations
Experimental: as §1

SEQ ID NO: 68 = target: T36, SEQ ID NO: 68
T36 construct: P14A, L108Q
Experimental: as §1

SEQ ID NO: 63 = target: T37, SEQ ID NO: 63
T37 construct: no mutations
Experimental: as §1

SEQ ID NO: 48 = target: T38, SEQ ID NO: 48
T38 construct: no mutations
Experimental: as §1

SEQ ID NO: 65 = target: T39, SEQ ID NO: 65
T39 construct: P14A
Experimental: as §1

SEQ ID NO: 72 = target: T40, SEQ ID NO: 72
T40 construct: S112G, S113G
Experimental: as §1

SEQ ID NO: 70 = target: T41, SEQ ID NO: 70
T41 construct: T110Q
Experimental: as §1

SEQ ID NO: 38 = target: T42, SEQ ID NO: 38
T42 construct: no mutations
Experimental: as §1

SEQ ID NO: 81 = target: T43, SEQ ID NO: 81
T43 construct: L11V
Experimental: as §1

SEQ ID NO: 69 = target: T44, SEQ ID NO: 69
T44 construct: L108Q
Experimental: as §1

SEQ ID NO: 49 = target: T45, SEQ ID NO: 49
T45 construct: V5L, I23A, E44G, A49S, A68T, A74S, T78L, W79Y, K83R, T110Q, Q108L
Experimental: as §1

SEQ ID NO: 45 = target: T46, SEQ ID NO: 45
T46 construct: P14A, P41T, S62F, S74A, S82bN, R83K, L108Q
Experimental: as §1

SEQ ID NO: 37 = target: T47, SEQ ID NO: 37
T47 construct: no mutations
Experimental: as §1

T38 sequence (VHH, as listed by the source): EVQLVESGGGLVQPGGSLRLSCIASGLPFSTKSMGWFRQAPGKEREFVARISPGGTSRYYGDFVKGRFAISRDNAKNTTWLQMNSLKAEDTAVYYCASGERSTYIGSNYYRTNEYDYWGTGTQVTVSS
T29 sequence (VHH, as listed by the source): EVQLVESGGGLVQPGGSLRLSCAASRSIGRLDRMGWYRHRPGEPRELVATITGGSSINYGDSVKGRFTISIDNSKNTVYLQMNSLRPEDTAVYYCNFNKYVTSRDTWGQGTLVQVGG
T33 sequence (VHH, as listed by the source): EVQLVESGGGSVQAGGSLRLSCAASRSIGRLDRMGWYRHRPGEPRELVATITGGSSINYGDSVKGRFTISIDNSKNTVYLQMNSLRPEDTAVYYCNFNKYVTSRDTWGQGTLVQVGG
T8 sequence (VHH, as listed by the source): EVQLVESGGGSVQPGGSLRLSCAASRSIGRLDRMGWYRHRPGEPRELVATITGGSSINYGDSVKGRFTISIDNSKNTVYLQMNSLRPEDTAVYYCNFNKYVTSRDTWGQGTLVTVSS
T16 sequence (chain, as listed by the source): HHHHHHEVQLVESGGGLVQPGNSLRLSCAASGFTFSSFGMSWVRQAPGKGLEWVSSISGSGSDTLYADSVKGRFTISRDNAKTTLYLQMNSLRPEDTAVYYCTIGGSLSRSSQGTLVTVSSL
T6 sequence (VHH, as listed by the source): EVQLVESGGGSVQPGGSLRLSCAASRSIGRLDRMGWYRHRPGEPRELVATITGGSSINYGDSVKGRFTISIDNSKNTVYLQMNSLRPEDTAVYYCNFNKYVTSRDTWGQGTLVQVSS
T24 sequence (VHH, as listed by the source): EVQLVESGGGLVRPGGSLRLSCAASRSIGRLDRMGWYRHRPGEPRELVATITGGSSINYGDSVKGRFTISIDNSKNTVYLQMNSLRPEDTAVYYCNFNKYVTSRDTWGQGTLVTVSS
T3 sequence (VHH, as listed by the source): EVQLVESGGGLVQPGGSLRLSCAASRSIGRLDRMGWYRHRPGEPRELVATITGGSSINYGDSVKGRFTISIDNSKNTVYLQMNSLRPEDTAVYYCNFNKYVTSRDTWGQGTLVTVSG
T46 sequence (VHH, as listed by the source): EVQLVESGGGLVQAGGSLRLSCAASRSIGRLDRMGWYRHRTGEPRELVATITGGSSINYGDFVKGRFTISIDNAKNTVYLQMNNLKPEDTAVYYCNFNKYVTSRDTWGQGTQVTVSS
T44 sequence (VHH, as listed by the source): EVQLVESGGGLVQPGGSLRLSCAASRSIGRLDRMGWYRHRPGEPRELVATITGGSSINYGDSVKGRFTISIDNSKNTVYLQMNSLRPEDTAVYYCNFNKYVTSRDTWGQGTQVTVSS
T37 sequence (chain, as listed by the source): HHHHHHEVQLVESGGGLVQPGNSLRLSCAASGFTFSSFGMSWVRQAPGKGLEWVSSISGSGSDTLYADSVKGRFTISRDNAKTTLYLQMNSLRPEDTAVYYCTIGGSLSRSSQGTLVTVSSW
T1 sequence (VHH, as listed by the source): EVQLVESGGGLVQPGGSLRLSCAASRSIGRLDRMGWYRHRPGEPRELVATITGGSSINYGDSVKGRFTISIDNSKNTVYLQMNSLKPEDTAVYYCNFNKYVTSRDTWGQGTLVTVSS
T19 sequence (chain, as listed by the source): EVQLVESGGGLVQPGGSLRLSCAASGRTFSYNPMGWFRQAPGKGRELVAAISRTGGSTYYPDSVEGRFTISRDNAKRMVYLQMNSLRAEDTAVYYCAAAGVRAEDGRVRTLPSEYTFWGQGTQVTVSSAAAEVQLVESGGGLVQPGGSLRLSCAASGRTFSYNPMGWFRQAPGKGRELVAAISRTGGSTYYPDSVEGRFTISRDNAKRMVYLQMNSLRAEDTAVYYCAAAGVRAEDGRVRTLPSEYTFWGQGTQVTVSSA
T15 sequence (chain, as listed by the source): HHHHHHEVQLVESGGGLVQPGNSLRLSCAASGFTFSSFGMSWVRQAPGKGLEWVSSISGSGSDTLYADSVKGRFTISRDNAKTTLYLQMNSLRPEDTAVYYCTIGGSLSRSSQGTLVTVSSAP
T10 sequence (chain, as listed by the source): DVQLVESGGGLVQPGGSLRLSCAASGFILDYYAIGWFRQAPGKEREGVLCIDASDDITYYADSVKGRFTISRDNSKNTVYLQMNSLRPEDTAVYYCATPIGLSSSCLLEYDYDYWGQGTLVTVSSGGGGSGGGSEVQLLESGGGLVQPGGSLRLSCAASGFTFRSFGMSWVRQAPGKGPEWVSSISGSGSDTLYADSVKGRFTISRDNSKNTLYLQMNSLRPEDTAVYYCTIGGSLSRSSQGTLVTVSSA
T36 sequence (VHH, as listed by the source): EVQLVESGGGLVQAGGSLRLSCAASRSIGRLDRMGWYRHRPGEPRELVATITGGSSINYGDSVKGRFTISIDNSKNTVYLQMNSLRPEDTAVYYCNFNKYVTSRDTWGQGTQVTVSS
T7 sequence (VHH, as listed by the source): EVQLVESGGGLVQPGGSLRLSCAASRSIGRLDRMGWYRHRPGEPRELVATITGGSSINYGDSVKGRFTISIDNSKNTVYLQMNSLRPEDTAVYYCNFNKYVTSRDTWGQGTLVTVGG
T11 sequence (VHH, as listed by the source): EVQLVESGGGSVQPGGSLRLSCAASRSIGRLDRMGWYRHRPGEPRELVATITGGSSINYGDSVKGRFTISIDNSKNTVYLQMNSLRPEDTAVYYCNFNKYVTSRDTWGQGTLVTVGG
T39 sequence (VHH, as listed by the source): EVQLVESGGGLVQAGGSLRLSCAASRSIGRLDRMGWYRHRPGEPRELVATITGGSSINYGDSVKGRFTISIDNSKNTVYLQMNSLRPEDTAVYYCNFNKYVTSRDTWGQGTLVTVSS
T21 sequence (VHH, as listed by the source): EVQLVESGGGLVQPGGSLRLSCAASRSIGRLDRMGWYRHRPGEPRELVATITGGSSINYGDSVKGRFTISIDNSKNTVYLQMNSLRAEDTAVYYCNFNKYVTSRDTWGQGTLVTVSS
T20 sequence (chain, as listed by the source): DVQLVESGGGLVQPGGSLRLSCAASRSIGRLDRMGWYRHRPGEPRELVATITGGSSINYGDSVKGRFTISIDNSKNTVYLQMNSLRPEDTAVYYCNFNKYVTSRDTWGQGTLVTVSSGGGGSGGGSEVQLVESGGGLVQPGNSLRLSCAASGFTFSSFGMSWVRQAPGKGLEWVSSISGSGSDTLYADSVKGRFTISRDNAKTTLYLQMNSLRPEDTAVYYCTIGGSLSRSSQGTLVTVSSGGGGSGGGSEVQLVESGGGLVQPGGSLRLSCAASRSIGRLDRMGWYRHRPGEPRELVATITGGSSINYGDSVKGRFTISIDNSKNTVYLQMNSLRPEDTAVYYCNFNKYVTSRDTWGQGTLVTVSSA
T5 sequence (chain, as listed by the source): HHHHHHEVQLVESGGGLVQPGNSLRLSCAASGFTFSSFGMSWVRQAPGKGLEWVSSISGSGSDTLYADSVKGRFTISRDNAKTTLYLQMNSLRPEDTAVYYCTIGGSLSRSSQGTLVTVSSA
T9 sequence (VHH, as listed by the source): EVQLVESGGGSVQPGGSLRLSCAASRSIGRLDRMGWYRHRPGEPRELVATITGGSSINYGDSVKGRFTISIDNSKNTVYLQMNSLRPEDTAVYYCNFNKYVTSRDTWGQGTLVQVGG
T42 sequence (chain, as listed by the source): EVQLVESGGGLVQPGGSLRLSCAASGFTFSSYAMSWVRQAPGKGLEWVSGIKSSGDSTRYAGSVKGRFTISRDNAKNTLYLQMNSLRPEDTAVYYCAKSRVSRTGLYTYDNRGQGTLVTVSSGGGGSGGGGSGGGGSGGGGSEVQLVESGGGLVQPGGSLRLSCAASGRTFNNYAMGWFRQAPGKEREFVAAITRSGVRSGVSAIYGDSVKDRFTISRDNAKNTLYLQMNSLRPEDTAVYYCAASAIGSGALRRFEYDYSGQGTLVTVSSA
T27 sequence (chain, as listed by the source): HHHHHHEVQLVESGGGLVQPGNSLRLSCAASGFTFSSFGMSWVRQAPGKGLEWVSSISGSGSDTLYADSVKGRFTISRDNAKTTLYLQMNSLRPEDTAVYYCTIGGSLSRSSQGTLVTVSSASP
T4 sequence (chain, as listed by the source): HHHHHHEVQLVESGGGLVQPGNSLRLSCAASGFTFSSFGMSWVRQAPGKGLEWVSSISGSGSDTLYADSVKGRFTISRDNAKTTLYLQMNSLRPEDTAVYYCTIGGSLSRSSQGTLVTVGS
T18 sequence (chain, as listed by the source): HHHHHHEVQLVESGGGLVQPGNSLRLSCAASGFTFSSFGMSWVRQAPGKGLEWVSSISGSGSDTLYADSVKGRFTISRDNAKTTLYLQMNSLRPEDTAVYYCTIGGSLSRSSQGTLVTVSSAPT
T43 sequence (VHH, as listed by the source): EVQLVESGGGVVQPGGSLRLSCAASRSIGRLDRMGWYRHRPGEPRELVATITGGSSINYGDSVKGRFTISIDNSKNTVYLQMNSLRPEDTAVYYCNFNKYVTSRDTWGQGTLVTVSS

B1: monoclonal antibody 21-4-3 (antibody, V domains shown)
VH: QIQLVQSGPELKKPGETVKISCKASGYTFTAYSMHWVKQAPGKGLKWMGWINTVTGEPAYADDFKGRFAFSLETSASTAYLQISSLKNEDTATYFCTRGLIHFYYWGQGTTLTVSS
VL: DIQMTQTPSSLSASLGGRVTITCKASQDIHNFISWYQHKPGKVPRLIIHDTSTLQPGIPSRFSGSGSGRDYSFSITNLEPEDIATYYCLHYDNLLRSFGGGTKLEIKR
notes: also called mAb21-4-3; mAb 21-4-3
binding level as % of reference sequence (=100%) (SEQ ID NO: 67): 101% | binding level as % of reference sequence (=100%) (SEQ ID NO: 75): 1% | binding level as % of reference sequence (=100%) (SEQ ID NO: 71): 44% | binding level as % of reference sequence (=100%) (SEQ ID NO: 52): 100% | binding level as % of reference sequence (=100%) (SEQ ID NO: 55): 6% | binding level as % of reference sequence (=100%) (SEQ ID NO: 86): 64% | binding level as % of reference sequence (=100%) (SEQ ID NO: 73): 1% | binding level as % of reference sequence (=100%) (SEQ ID NO: 66): 48% | binding level as % of reference sequence (=100%) (SEQ ID NO: 85): 32% | binding level as % of reference sequence (=100%) (SEQ ID NO: 43): 3% | binding level as % of reference sequence (=100%) (SEQ ID NO: 87): 41% | binding level as % of reference sequence (=100%) (SEQ ID NO: 74): 1% | binding level as % of reference sequence (=100%) (SEQ ID NO: 83): 79% | binding level as % of reference sequence (=100%) (SEQ ID NO: 47): 4% | binding level as % of reference sequence (=100%) (SEQ ID NO: 61): 6% | binding level as % of reference sequence (=100%) (SEQ ID NO: 64): 6% | binding level as % of reference sequence (=100%) (SEQ ID NO: 41): 7% | binding level as % of reference sequence (=100%) (SEQ ID NO: 62): 6% | binding level as % of reference sequence (=100%) (SEQ ID NO: 42): 0% | binding level as % of reference sequence (=100%) (SEQ ID NO: 44): 1% | binding level as % of reference sequence (=100%) (SEQ ID NO: 82): 56% | binding level as % of reference sequence (=100%) (SEQ ID NO: 58): 6% | binding level as % of reference sequence (=100%) (SEQ ID NO: 40): 1% | binding level as % of reference sequence (=100%) (SEQ ID NO: 78): 1% | binding level as % of reference sequence (=100%) (SEQ ID NO: 84): 91% | binding level as % of reference sequence (=100%) (SEQ ID NO: 77): 1% | binding level as % of reference sequence (=100%) (SEQ ID NO: 60): 6% | binding level as % of reference sequence (=100%) (SEQ ID NO: 59): 6% | binding level as % of reference sequence (=100%) (SEQ ID NO: 80): 51% | binding level as % of reference sequence (=100%) (SEQ ID NO: 39): 0% | binding level as % of reference sequence (=100%) (SEQ ID NO: 88): 1% | binding level as % of reference sequence (=100%) (SEQ ID NO: 76): 2% | binding level as % of reference sequence (=100%) (SEQ ID NO: 89): 2% | binding level as % of reference sequence (=100%) (SEQ ID NO: 79): 2% | binding level as % of reference sequence (=100%) (SEQ ID NO: 57): 6% | binding level as % of reference sequence (=100%) (SEQ ID NO: 68): 26% | binding level as % of reference sequence (=100%) (SEQ ID NO: 63): 3% | binding level as % of reference sequence (=100%) (SEQ ID NO: 48): 3% | binding level as % of reference sequence (=100%) (SEQ ID NO: 65): 23% | binding level as % of reference sequence (=100%) (SEQ ID NO: 72): 45% | binding level as % of reference sequence (=100%) (SEQ ID NO: 70): 106% | binding level as % of reference sequence (=100%) (SEQ ID NO: 38): 0% | binding level as % of reference sequence (=100%) (SEQ ID NO: 81): 75% | binding level as % of reference sequence (=100%) (SEQ ID NO: 69): 106% | binding level as % of reference sequence (=100%) (SEQ ID NO: 49): 4% | binding level as % of reference sequence (=100%) (SEQ ID NO: 45): 22% | binding level as % of reference sequence (=100%) (SEQ ID NO: 37): 7%
